{"source": "the DeepSol protein solubility set"}
{"test": "soluble on expression in E. coli; label from the status in PepcDB or PDB records"}
{"sequence": "MAGQEHHYAVQVKWTGNRGKGTSGYRDYERDYTISTAGKADITGSSDPAFRGDPSRWNPEDLLVASLSACHKLWYLHFCSVNGIIVEDYVDNAEGTLVMEKDGAGQFSEVVLKPVITISKGDPARADELHHDAHDKCFIARSVNFPIRVQGTVKVV", "soluble on expression in E. coli": "not soluble"}
{"sequence": "MGGYGGVKMEGMLKGEGPGPLPPLLQQYVELRDRYPDYLLLFQVGDFYECFGEDAERLARALGLVLTHKTSKDFTTPMAGIPIRAFDAYAERLLKMGFRLAVADQVEPAEEAEGLVRREVTQLLTPGTLTQEALLPREANYLAAIATGDGWGLAFLDVSTGEFKGTLLKSKSALYDELFRHRPAEVLLAPELRENEAFVAEFRKRFPVMLSEAPFEPQGEGPLALRRAQGALLAYARATQGGALSVRPFRLYDPGAFVRLPEASLKALEVFEPLRGQDTLFGVLDETRTAPGRRLLQAWLRHPLLERGPLEARLDRVERFVREGALREGVRRLLFRLADLERLATRLELSRASPRDLAALRRSLEILPELKGLLGEEVGLPDLSGLLEELRAALVEDPPLKVSEGGLIREGYDPDLDALRRAHAEGVAYFLDLEAREKERTGIPTLKVGYNAVFGYYLEVTRPYYEKVPQEYRPVQTLKDRQRYTLPEMKERERELYRLEALIKRREEEVFLALRERARKEAEALREAARILAELDVYAALAEVAVRHGYTRPRFGERLRIRAGRHPVVERRTAFVPNDLEMAHELVLVTGPNMAGKSTFLRQTALIALLAQIGSFVPAEEAELPLFDGIYTRIGASDDLAGGKSTFMVEMEEVALVLKEATERSLVLLDEVGRGTSSLDGVAIATALAEALHERRCYTLFATHYFELTALALPRLKNLHVAAKEEEGGLVFYHQVLPGPASKSYGVEVAEMAGLPKEVVERARALLSAMAARREGALEEVLERLLALDPDRLTPLEALRFLHELKALALGLPLGSMKG", "soluble on expression in E. coli": "soluble"}
{"sequence": "AVPKIRIAVPSKGRISEPAIRLLENAGVGLKDTVNRKLFSKTQHPQIEVMFSRAADIPEFVADGAADLGITGYDLIVERGSDVEILEDLKYGRASLVLAAPEDSTIRGPEDIPRGAVIATEFPGITENYLREHGIDAEVVELTGSTEIAPFIGVADLITDLSSTGTTLRMNHLRVIDTILESSVKLIANRESYATKSGIIEELRTGIRGVIDAEGKRLVMLNIDRKNLDRVRALMPGMTGPTVSEVLSDNGVVAVHAVVDEKEVFNLINRLKAVGARDILVVPIERIIP", "soluble on expression in E. coli": "soluble"}
{"sequence": "MASPLYLHSSDGPENLITNVQLKGENYEDWAKHVRNASRTKQKLGFIDGTLEKPTKEDDMEQ", "soluble on expression in E. coli": "not soluble"}
{"sequence": "MKAINIALDGPAAAGKSTIAKRVASELSMIYVDTGAMYRALTYKYLKLNKTEDFAKLVDQTTLDLTYKADKGQCVILDNEDVTDFLRNNDVTQHVSYVASKEPVRSFAVKKQKELAAEKGIVMDGRDIGTVVLPDADLKVYMIASVEERAERRYKDNQLRGIESNFEDLKRDIEARDQYDMNREISPLRKADDAVTLDTTGKSIEEVTDEILAMVSQIK", "soluble on expression in E. coli": "soluble"}
{"sequence": "MSLKILTIVVMSGNVISLNRPSANAAIRLGFTYEGRFRNHAIYKGRSRDTDWFSIIDSEWPVLKKRFENWLSPENFDEQGQQKRSLRDC", "soluble on expression in E. coli": "not soluble"}
{"sequence": "MGNGLAKCLIDGDTETFWHAKWQGGSDPLPYDIVIDMKQNIQIAQVELLPRGRGSNNPIKVVEFAASEDNVNWTPIGRFGFTNQDAALEYYVKSIKARYIRLTIPDDGGNSTVAAIRELDVKGTIINLEHHHHHH", "soluble on expression in E. coli": "not soluble"}
{"sequence": "MGSDKIHHHHHHMLEELSENVWIAEGTCVSFHGFHGFHGFHGFHGFHGFQYPTRSVVVRLKSGAMWVWSPVKFDQDLADEIESLGTITHLVSPNKIHHLFLADWSSHVPTAKIWGPRSTVNKRRDLVFQPALDHLPPRDWAEDFEQFHVKGSLAMDEILFLHKQSNTLILADFSEHFSDQFLQRHWQPWQRRIGQFWGITEGRGFAPLDWRLSFLNRSHLRTLKQQLLDRQVDHVVMAHGEIARTDGHRFLQRSLAWI", "soluble on expression in E. coli": "not soluble"}
{"sequence": "MGSDKIHHHHHHMRVLAAMSGGVDSAVAAARAVEAGHDVVGVHLALSRMPGTLRTGSRGCCTIEDSRDAWRACDVLGIPYYVWDFSERFKEDVVQDFIDEYAAGRTPNPCMRCNERIKFAALLEKAIALGFDAVCTGHYAKVITDADGNPELHRAADWAKDQSYVLGVLTHEQLKHSMFPLADTPSKAEVRAEAERRGLSVANKPDSHDICFIPDGDTAGWLAEKIEMTTGDIVDEAGTKVGEHPGANAFTVGQRRGLKLGTPAADGKPRFVLEIRPKENKVVVGPEALLAIDEIRGIKVSWAGLPIAEVATGDEFDCHAQVRAHGDPVPATARMERLTDDDGAERTNLVVTLATPLRGVAPGQTVVLYQGSRVLGQATIDTARSLQRAAL", "soluble on expression in E. coli": "not soluble"}
{"sequence": "MGSDKIHHHHHHMTTASTVYHYCGAESFFSIVRNGRLWVSDARKTNDRRELEWFKDLALKHIAKSAATGDKMLSDLHLALKVRFELLEDVSDYYVCCFSEKKDSVPQWVAYADRGTGFAIGFDVNALRKKIGAALLSPSYAPVPFGVGANGWGFGPVAYAEEGVANAQIDDLMSTIVSAPFVGEDVTDSARDHIDRVCAFCKHPDFQTEHEWRIVCNTSFLKKNAGLTGTDMLPDTKWRKGGYGLTPYRETVDVLDCVKEVIVGPGNADRDSIEYVKQFLRFSGVKAEVFLSVSPYR", "soluble on expression in E. coli": "not soluble"}
{"sequence": "MHNLVPAPKQTQSVLIKNATVHTVIQGVLTNTDVLIENGKISALGPQLSTNTTASTQVVDASGKHLYPGLIALDTSLGLEHHHHHH", "soluble on expression in E. coli": "not soluble"}
{"sequence": "MPFHLALGLSNCEQIYEPGGTIEGYVTFDLRESVKVKAIRISAEGLATTKWLLSESSKSSHGRSREVSYSAKVTYLDEEQMVWKPSEGHSKSSVFPGIHVYPFKFQIPIGVPPSFEGDHGNIRYHMKATVERPWKTNRSVTRYLTILPPKDLNKEVLASEETSSWKSKKIRIPKKGYVPGETISIETNIDNMSSRPILKTECYLIQQCRFLAYRYGISGPTDGRRASSLSENDRYLSRKRDEIKIVSVIHEMHIEPRTEHKAKMRLKIPCTCPTFDSTLIHVEYFVVVKLHVKCRMRNTVKAECPIIIGSKPLADEHVDPRTPTYQEVATFSALTHRSMMSVDEKLTPKYVYYPKYGKSRDDEADEPPSLTDLQLPPIDSLSDDD", "soluble on expression in E. coli": "not soluble"}
{"sequence": "NWVTPDGAPGPTGKGGFAAASGRYHLYVSYACPWAHRTLIFREIKGLSAHIPVSAVHPDMLDQGWTFAPEPQGRTGDRLYGLNYAHQVYTRADPTYSGRVTVPILWDSERQTVVSNESSEIIRMFNSAFDGLTGNRDDFWPEALREAIEPVNARIYDTVNN", "soluble on expression in E. coli": "not soluble"}
{"sequence": "SPDEIAQVRFLIVGRTGWIANMVAELLEQRGERYAFASFRLEQREACERELDALRPQRVLNVLGSLGVRTSTGARTTGARPSAVTYWAC", "soluble on expression in E. coli": "soluble"}
{"sequence": "MKAMHMEQKIYKAKFSEYQLADNFINFNYLLKFKLGPEDVRAKGAFSTIFESTMLDWDLQLHKQFAGHILHSRESNWVISLNGSGVRDSYPPLHKLYFKVKAMGSDGSIKKSLKYFIDGLPIAPAERRGRMDHRSYTTLQNTQFERDLSTLIAEAKKKAQTIQLETRLEFKKNDLVDMKYLLGNGAPNMPDSLDYYFDAITNKSRHDLKLKTSDGMHFVMTNKEIVCLASQFFRQHLKDTTTEYTVGRADSVQSIDICLTYMITGIYKKPALLSPKLAFEIFALAMQWKVFEPKVLKNSIEKHCCEELQKNYEDIMYVCNMLIIADDAQFANVQNCCIATLVFYHAHDFIRIFVIGNHPLKERFSRRQEFLRPSLTMQVKRAFAASNESKCFIKFLPAIGED", "soluble on expression in E. coli": "not soluble"}
{"sequence": "MDLLFGRRKTPEELLRQNQRALNRAMRELDRERQKLETQEKKIIADIKKMAKQGQMDAVRIMAKDLVRTRRYVRKFVLMRANIQAVSLKIQTLKSNNSMAQAMKGVTKAMGTMNRQLKLPQIQKIMMEFERQAEIMDMKEEMMNDAIDDAMGDEEDEEESDAVVSQVLDELGLSLTDELSNLPSTGGSLSVAAGGKKAEAAASALADADADLEERLKNLRRD", "soluble on expression in E. coli": "soluble"}
{"sequence": "MGKREKKPNRRRHKGEYSNDAEDFYDQHPPAVASVDEEDEENSDEEEEENDGNESSDLPSKFLLYQQSVQSPKGDISYLQKFFLIFYIDCWNSAEWLKTDTRRTAIGLDFDLEALEWCMDNNISKLGSDVYSRMSLFHGNVLTPLEAKQVKSKSHELIQNISLDDGDDNEDLADPSVVESLEKDGPDSLPKRDIVCAFNFSCCCLHKRSELVSYFKNARDALSKKGGIFVMDLYGGASAEGQLKLQRKFPNFTYTWEQAEFDILSRKTRISLHYHLQKQNRKIRHAFSYSWRLWSLPEIKDCMEEAGFSSVHFWLREMPDASEMRRTDGFGAGRDIKYEQVKSFQQCDSWNAYIVAVSL", "soluble on expression in E. coli": "not soluble"}
{"sequence": "MYVQLSQRLKDVATYVPKGAKLLDVGSDHAYLPIYLLEKGLITSAIAGEVVKGPYESALANVSASGFNDKIDVRLANGLAAFEPYDAVTTITICGMGGRLIADILDAGKDKLKDVDRLILQPNNREDDLRIWLMENGFTIVAEAIMTEN", "soluble on expression in E. coli": "not soluble"}
{"sequence": "MSSNVPADMINLRLILVSGKTKEFLFSPNDSASDIAKHVYDNWPMDWEEEQVSSPNILRLIYQGRFLHGNVTLGALKLPFGKTTVMHLVARETLPEPNSQGQRNREKTGESNCCVIL", "soluble on expression in E. coli": "soluble"}
{"sequence": "MPDGQRVTKRSEDSRYFTVQPADTPGMANAQGYLPAHDAAGFDKRLDAIAATVCPNDPRTPDQRRADALGALGRYRDTLDCQCGREDCTAVAERDAVNNAMIHVLAEQSTLDGGNEPGYLPGFGMLPAHMVREVAKTATTKPVTIPKDKAQSGYRPNAELTEFIRWRDLTCRFPGCDAPAMAADIDHTRPLEHHHHHH", "soluble on expression in E. coli": "soluble"}
{"sequence": "MGSDKIHHHHHHMNEKTTTAQKGAPRARVSATRVRSASRTPHATTVNPADLTVHNHPLARRHYRVATAAIEGFVDLVEHCVRVLIPGALIYARPRMGKTHAIDYLALHLGRNRGDILVLRMSCEYHRTDYEGAFFSALLSAAGIRDPQPRFIADKRFALMRRINEQLQMRSGHIVVLFCDEAQRLSKHALEWLRDVHDQLAHHGVRLITFLVGQPQLMEQKAQYQLSGDEQIVARFMIEQLHFRGITGAVEAATCLASYDMTRYPEDTGSTFTAFFYPDAYAAGLRLEQSAAALWNGFVNAHKVAQLAGPIELHMDYFSRAVESVLLNGPQWDSAGLVLDSAYWERAVRESGYVAAQQTVQPEV", "soluble on expression in E. coli": "not soluble"}
{"sequence": "MSSQKQLEGMIFDVQSFSVHDGPGCRTTVFLNGCPLSCKWCANPESWTVRPHMMFSELSCQYENGCTVCHGKCKNGALSFNLDNKPVIDWNICKDCESFECVNSCYYNAFKLCAKPYTVDELVQVIKRDSNNWRSNGGVTFSGGEPLLQHEFLHEVLLKCHEVNIHTAIETSACVSNEVFNKIFNDIDFAFIDIKHMDREKHKEQTGVYNDLILENISNLANSDWNGRLVLRVPVISGFNDSDENISDIISFMHKNNLVEINLLPFHRLGESKWTQLGKEYEYSDKGDVDEGHLEELQDIFLDNGIACYVGHETAF", "soluble on expression in E. coli": "not soluble"}
{"sequence": "MVKFLRDLVKIPGESAEEGNKIARAKAEMEKLGFDKIDIDPQGNLLGYMGSGEKLIAFDGHMDTVGIGEMSNWKFDPYDGYETETEIGGRGTSDQEGGIVSAIYGAKIMKDLGLLSEKYTALVTVTVQEEDCDGLCWQYIIKEDGIRPEFVVSTEPTDGGIYRGQRGRMEIKVDVKGVSCHGSAPERGDNAIYKMADILQDVRALNNNGDTESTAIRGLVRMLDPKYNPEWQEARFLGRGTVTVSQIFHSSPSRCAVADGCTVSLDRRMTAGETWESCLEEIRNLPAVKKYGDDVTVSMYNYDRPSYTDLTYEIECYFPTWVIPENHDVTKALMETHKNLYGETRKGSVETVEMREERPLLDKWTFSTNGVSIMGRNGIPCIGFGPGAEAQAHAPNEKTWKDDLVRCAAVYAALPTVYCG", "soluble on expression in E. coli": "not soluble"}
